Test results published in patent publication US9034825B2, “Treatment of myocardial injury with humanin analogs” (Albert Einstein College of Medicine of Yeshiva University, priority 2007, dated 2015).

How the values were obtained:
IGF-1 = IGF-1 (Homo sapiens, UniProt P05019); assay: Western ligand blots with 125I-labeled IGF-1; assay type: binding; conditions: data not shown
Sprague-Dawley rats = assay: Peripheral IGFBP-3 infusion during hyperinsulinemic clamp; assay type: in vivo, rat
Experimental: To study the acute effects of an infusion of IGFBP-3, two groups of awake, unstressed, chronically catheterized Sprague-Dawley rats (˜300 g) were studied for 300 min (n=6 in each group) under hyperinsulinemic clamp (as previously described). From 120 min the rats received a primed continuous infusion of IGFBP-3 (0.06 mg/kg/hr) or saline (control) for an additional 3 h.
Plasma samples for determination of [^3H]glucose and [^3H] water specific activities were obtained at 10-min intervals during the basal and clamp periods. Steady state conditions for the plasma glucose concentration and specific activity were achieved within 90 min in all the studies. Plasma samples for determination of plasma IGF-1 (rat and human), IGFBP-3 (human IGFBP-3), GH, insulin, leptin, and FFA concentrations were collected at 30-min intervals throughout the study. All determinations were also performed on portal vein blood obtained at the end of the experiments. The total amount of blood drawn during the entire study for various assays is ˜3 cc. After separation of plasma (subsequently used for analysis), the red blood cells were reconstituted in saline and infused back into the animal.
Plasma glucose (sample volume 10 μl) was measured by the glucose oxidase method (Glucose Analyzer II, Beckman Instruments, Palo Alto, Calif.). Plasma [^3H]glucose radioactivity was measured in duplicates in the supernatants of Ba(OH)2 and ZnSO4 precipitates of plasma samples (20 μl) after evaporation to dryness to eliminate tritiated water. […] Plasma insulin (10 μl) was measured by RIA using rat insulin standard for basal studies and human insulin standard for insulin clamp studies. […] Plasma non-esterified fatty acid concentrations (5 μl) were determined by an enzymatic method with an automated kit according to the manufacturer's specification (Waco Pure Chemical Industries, Osaka, Japan). Rat IGF-1 (50 μl) was measured with a rIGF-1 ELISA kit (DSL, Webster, Tex.). Human IGF-1 (50 μl) was measured with an in-house kit developed in UCLA using a double monoclonal antibody ELISA with sensitivity of 0.1 ng/ml and an intra-assay and inter-assay coefficient of variations which are <6% and <8%, respectively, in the range from 1 to 6 ng/ml. Human IGFBP-3 (30 μl) was measured with an ELISA kit (DSL, Webster, Tex.). This kit reads both IGFBP-3 and NLS IGFBP-3. […] Serum levels of rat growth hormone were determined using an enzyme immunoassay (EIA) kit (ALPCO, Windham, N.H.) according to the manufacturer's instructions. […]
Under steady-state conditions for plasma glucose concentrations, the rate of glucose disappearance (Rd) equals the rate of glucose appearance (Ra). The latter was calculated as the ratio of the rate of infusion of [3-^3H]glucose (dpm/min) and the steady-state plasma [^3H]glucose specific activity (dpm/mg). […]

[1] = 0.06 mg/kg/hr IV, hyperinsulinemic clamp

IGF-1, sequence (P05019 49-118): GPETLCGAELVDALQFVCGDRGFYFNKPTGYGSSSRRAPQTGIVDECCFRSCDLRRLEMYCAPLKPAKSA

Substance: IGFBP-3: non glycosylated hIGFBP-3 (IGF binding protein-3), provided by Celtrix
- binding to 125I-labeled IGF-1 (IGF-1): bound equally
- human IGFBP-3 levels during the IGFBP-3 infusion (Sprague-Dawley rats; 0.06 mg/kg/hr IV for 3 h): 1960 ± 360 ng/mL
- higher HGP compared to controls (Sprague-Dawley rats; [1]): 30%
- reduction in insulin stimulated glucose uptake compared to controls (Sprague-Dawley rats; [1]): ~17%
- level in rat CSF after peripheral infusion, mean (Sprague-Dawley rats; peripherally infused IGFBP-3): 7 ng/mL
